Results published in US20230322944A1.
Changes are numbered by the printed parent chain.

B1: MAB05 (antibody, V domains shown)
VH: EVQLLESGGGLVQPGGSLRLSCAASGFTVTSYAVHWVRQAPGKGLEWLGVIWSGGSTDYNAAFISRLTISKDNSKNTVYFQMNSLRAEDTAVYYCARAGDANYDGFAYWGQGTLVTVSS
VL: DIQMTQSPSSLSASVGDRVTITCQASQSVSFLYWYQQRPGKAPRLLIYDTSNLASGVPSRFSGSGSGTSYTFTISSLQPEDIATYYCQQWSTYPLTFGQGTKVEIK
B2: MAB06 (antibody, V domains shown)
VH: B1 VH
VL: B1 VL with Q27S, L32M

Molecular target: cynomolgus monkey CD122 on NK cells (cynomolgus monkey) (UniProt Q38J85)
Sequence (Q38J85 27-551 limits assumed): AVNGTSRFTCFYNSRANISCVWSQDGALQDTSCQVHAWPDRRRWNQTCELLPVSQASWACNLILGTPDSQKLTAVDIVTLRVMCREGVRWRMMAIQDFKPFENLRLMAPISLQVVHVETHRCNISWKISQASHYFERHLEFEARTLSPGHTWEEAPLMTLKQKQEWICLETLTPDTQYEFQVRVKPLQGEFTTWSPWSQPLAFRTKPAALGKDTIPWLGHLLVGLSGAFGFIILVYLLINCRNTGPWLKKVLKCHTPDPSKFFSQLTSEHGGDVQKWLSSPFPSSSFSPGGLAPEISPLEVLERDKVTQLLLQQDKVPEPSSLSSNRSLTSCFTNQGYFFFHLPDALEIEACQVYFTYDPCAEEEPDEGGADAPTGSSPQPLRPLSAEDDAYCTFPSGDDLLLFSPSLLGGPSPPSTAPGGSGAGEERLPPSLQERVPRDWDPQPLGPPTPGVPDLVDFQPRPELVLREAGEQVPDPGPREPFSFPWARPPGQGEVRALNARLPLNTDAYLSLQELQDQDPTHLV
Assay: flow cytometry of blood from cynomolgus monkeys after a single IV dose of 1 mg/kg

Binder	CD122 receptor occupancy on NK cells [%]
B1	> 90
B2	> 90
